Among the data in US20230399641A1 are % cells stained positive and % of cells in the PE-positive (RBD-bound) gate values, retold here.

Like-named read-outs stand apart in the source and are kept apart here.

Assay [1] deals with full-length human ACE2 mutant AAA/K353del over-expressed on hACE2-KO 293FT cells (human) (UniProt Q9BYF1).
For assay [2], the target named is full-length human ACE2 mutant AKA/K353del over-expressed on hACE2-KO 293FT cells (human) (UniProt Q9BYF1).
Assay [3] addresses full-length human ACE2 mutant K353del over-expressed on hACE2-KO 293FT cells (human) (UniProt Q9BYF1).
The target in assay [4] is No hACE2.
Assay [5] addresses full-length human ACE2 mutant AAA/K353del over-expressed on hACE2-KO 293FT cells (human) (UniProt Q9BYF1). The source holds these as a separate data set.
Assay [6] concerns the target full-length human ACE2 mutant AKA/K353del over-expressed on hACE2-KO 293FT cells (human) (UniProt Q9BYF1). This is another data set of the same source.
Assay [7] deals with full-length human ACE2 mutant K353del over-expressed on hACE2-KO 293FT cells (human) (UniProt Q9BYF1). This is another data set of the same source.
For assay [8], the target named is full-length human ACE2 mutant AAA/K353del over-expressed on hACE2-KO 293FT cells (human) (UniProt Q9BYF1). This is another data set of the same source.
For assay [9], the target named is full-length human ACE2 mutant AKA/K353del over-expressed on hACE2-KO 293FT cells (human) (UniProt Q9BYF1). This is another data set of the same source.
Assay [10] has the same target. The source holds these as a separate data set.

In the case of “receptor binding domain (RBD) of B.1.1.7 SARS-CoV-2 spike (residues 319-541) (from UniProt P0DTC2 319-541) (ligand)”, the % cells stained positive in assay [1] turned out to be 1.6%; in assay [2], 1.6%; in [3], 1.4%.

In the case of “receptor binding domain (RBD) of B.1.351 SARS-CoV-2 spike (residues 319-541) (from UniProt P0DTC2 319-541) (ligand)”, the % cells stained positive in [1] came to 3.5%; in [2], 4%; in [3], 3.5%. In addition, the % of cells in the PE-positive (RBD-bound) gate in [4] amounted to 0.41%; in assay [5] it was 3.76%; in assay [6] it was 3.48%; in assay [7], 5.07%.

With “receptor binding domain (RBD) of P.1 SARS-CoV-2 spike (residues 319-541) (from UniProt P0DTC2 319-541) (ligand)”, the % cells stained positive in assay [1] is 2.6%; in assay [2] it was 2.9%; in [3], 2.3%. The % of cells in the PE-positive (RBD-bound) gate stood at 2.03% in [8] and 1.82% in assay [9].

Consider “receptor binding domain (RBD) of wildtype SARS-CoV-2 spike (residues 319-541) (from UniProt P0DTC2 319-541) (ligand)”, for which the % cells stained positive in [3] worked out at 1.8%. The % of cells in the PE-positive (RBD-bound) gate in [10] is 0.56%.
